Assay results as given in paper PMC4357719, “Roles of Rad51 paralogs for promoting homologous recombination in Leishmania infantum”.

Tests used:
Test in all cases: competition EMSA; preferred substrate in mixture; 25 mM MOPS pH 7.0, 0.2% Tween-20, 1 mM CaCl2, 2 mM DTT; 25 nM 32P-DNA; 37 C 10 min, then 0.2% glutaraldehyde 15 min; 8% TBE acrylamide gel
Details in all cases: protein: recombinant; tags: C-terminal 10xHis; N-terminal GST cleaved with PreScission; label: 32P on strand 3 (JYM1745); D-loop: 1:2 with unpaired bubble, 3 paired to 2 in the bubble
LiRad51-3 = target: T1, LiRad51-3 (Leishmania infantum, UniProt E9AHR7 1-687)
T1 sequence: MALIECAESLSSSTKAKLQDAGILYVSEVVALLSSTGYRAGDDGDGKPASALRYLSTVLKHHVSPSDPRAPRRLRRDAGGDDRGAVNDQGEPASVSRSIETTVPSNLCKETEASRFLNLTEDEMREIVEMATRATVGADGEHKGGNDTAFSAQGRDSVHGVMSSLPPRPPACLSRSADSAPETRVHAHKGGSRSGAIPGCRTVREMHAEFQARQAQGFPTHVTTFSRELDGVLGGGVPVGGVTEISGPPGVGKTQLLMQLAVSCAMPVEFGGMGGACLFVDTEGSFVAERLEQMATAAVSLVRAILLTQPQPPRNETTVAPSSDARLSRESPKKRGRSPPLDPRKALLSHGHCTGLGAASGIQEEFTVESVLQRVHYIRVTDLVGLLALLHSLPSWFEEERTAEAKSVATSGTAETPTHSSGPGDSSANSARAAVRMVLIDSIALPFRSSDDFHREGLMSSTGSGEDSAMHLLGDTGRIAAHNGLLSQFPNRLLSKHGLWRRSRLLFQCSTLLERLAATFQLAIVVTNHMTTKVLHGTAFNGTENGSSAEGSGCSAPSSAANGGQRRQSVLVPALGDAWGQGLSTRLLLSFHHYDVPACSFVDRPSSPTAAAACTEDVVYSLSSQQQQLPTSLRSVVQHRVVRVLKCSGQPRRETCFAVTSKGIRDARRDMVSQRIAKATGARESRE

LiRad51-4 = target: T2, LiRad51-4 (Leishmania infantum, UniProt A4HUT5 1-518)
T2 sequence: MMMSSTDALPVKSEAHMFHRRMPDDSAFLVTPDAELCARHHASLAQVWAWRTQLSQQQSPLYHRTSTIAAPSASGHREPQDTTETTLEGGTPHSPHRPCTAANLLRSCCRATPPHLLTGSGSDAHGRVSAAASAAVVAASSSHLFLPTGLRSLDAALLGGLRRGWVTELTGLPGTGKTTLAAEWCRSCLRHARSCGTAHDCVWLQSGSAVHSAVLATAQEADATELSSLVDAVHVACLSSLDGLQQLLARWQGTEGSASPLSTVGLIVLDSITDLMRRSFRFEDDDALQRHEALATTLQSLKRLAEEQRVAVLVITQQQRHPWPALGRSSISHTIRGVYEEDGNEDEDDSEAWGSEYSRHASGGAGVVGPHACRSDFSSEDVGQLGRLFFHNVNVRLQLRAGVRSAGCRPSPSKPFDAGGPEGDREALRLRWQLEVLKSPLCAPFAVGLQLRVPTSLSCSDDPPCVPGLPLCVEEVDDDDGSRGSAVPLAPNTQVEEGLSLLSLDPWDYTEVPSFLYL

LiRad51-6 = target: T3, LiRad51-6 (Leishmania infantum, UniProt A4I499 1-649)
T3 sequence: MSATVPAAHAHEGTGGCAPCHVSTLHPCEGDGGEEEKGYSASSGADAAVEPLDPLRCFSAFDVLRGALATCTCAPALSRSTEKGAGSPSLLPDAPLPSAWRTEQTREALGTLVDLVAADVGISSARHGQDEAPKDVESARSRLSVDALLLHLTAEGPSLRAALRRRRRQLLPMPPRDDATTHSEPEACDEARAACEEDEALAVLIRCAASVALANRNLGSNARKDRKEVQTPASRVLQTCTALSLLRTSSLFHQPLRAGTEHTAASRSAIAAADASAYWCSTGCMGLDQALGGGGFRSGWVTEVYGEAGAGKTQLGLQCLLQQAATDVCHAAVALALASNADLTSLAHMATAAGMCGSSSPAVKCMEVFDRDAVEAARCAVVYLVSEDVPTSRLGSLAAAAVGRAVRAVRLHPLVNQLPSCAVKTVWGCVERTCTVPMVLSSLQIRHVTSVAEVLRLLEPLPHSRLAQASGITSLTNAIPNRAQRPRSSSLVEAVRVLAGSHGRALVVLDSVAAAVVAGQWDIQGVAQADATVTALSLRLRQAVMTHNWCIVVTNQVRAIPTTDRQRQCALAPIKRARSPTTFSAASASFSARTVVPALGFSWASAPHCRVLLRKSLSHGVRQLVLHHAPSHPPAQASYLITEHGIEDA

Measured: binding result

B1: D-loop (JYM1395/JYM1396/JYM1745) (structured_DNA)
DNA 1: GCCAGGGACGGGGTGAACCTGCAGGTGGGCGGCTGCTCATCGTAGGTTAGTATCGACCTATTGGTAGAATTCGGCAGCGTCATGCGACGGC
DNA 2: GCCGTCGCATGACGCTGCCGAATTCTACCACGCTACTAGGGTGCCTTGCTAGGACATCTTTGCCCACCTGCAGGTTCACCCCGTCCCTGGC
DNA 3: AAGATGTCCTAGCAAGGCACCCTAGTAGC
binds: all assays above
